# Assay results published in article PMC10164577, “CAF-1 deposits newly synthesized histones during DNA replication using distinct mechanisms on the leading and lagging strands” (Nucleic Acids Research, 2022).
# Where a chain is given by its changes, count along the chain named. Names and notes keep the numbering of the source.
# B1: Proliferating Cell Nuclear Antigen (PCNA), wild type (natural protein, yeast, UniProt P15873 1-258, looked up)
# chain: MLEAKFEEASLFKRIIDGFKDCVQLVNFQCKEDGIIAQAVDDSRVLLVSLEIGVEAFQEYRCDHPVTLGMDLTSLSKILRCGNNTDTLTLIADNTPDSIILLFEDTKKDRIAEYSLKLMDIDADFLKIEELQYDSTLSLPSSEFSKIVRDLSQLSDSINIMITKETIKFVADGDIGSGSVIIKPFVDMEHPETSIKLEMDQPVDLTFGAKYLLDIIKGSSLSDRVGIRLSSEAPALFQFDLKSGFLQFFLAPKFNDEE
# notes: PCNA, yeast; homotrimeric clamp; In the SEC experiments loaded onto nicked pUC19 by RFCΔN and ATP
# B2: PCNA K164C, labeled with Alexa Fluor 546 (natural protein, yeast, UniProt P15873 1-258, looked up)
# chain: B1 chain with K164C
# modifications: labeled with Alexa Fluor 546
# notes: PCNA, yeast, K164C; also called fluorescently labeled PCNA; source: made by standard mutagenesis, purified following the wild-type protocol
# B3: DNA polymerase delta (Polδ) (complex)
# chain 1: MSEKRSLPMVDVKIDDEDTPQLEKKIKRQSIDHGVGSEPVSTIEIIPSDSFRKYNSQGFKAKDTDLMGTQLESTFEQELSQMEHDMADQEEHDLSSFERKKLPTDFDPSLYDISFQQIDAEQSVLNGIKDENTSTVVRFFGVTSEGHSVLCNVTGFKNYLYVPAPNSSDANDQEQINKFVHYLNETFDHAIDSIEVVSKQSIWGYSGDTKLPFWKIYVTYPHMVNKLRTAFERGHLSFNSWFSNGTTTYDNIAYTLRLMVDCGIVGMSWITLPKGKYSMIEPNNRVSSCQLEVSINYRNLIAHPAEGDWSHTAPLRIMSFDIECAGRIGVFPEPEYDPVIQIANVVSIAGAKKPFIRNVFTLNTCSPITGSMIFSHATEEEMLSNWRNFIIKVDPDVIIGYNTTNFDIPYLLNRAKALKVNDFPYFGRLKTVKQEIKESVFSSKAYGTRETKNVNIDGRLQLDLLQFIQREYKLRSYTLNAVSAHFLGEQKEDVHYSIISDLQNGDSETRRRLAVYCLKDAYLPLRLMEKLMALVNYTEMARVTGVPFSYLLARGQQIKVVSQLFRKCLEIDTVIPNMQSQASDDQYEGATVIEPIRGYYDVPIATLDFNSLYPSIMMAHNLCYTTLCNKATVERLNLKIDEDYVITPNGDYFVTTKRRRGILPIILDELISARKRAKKDLRDEKDPFKRDVLNGRQLALKISANSVYGFTGATVGKLPCLAISSSVTAYGRTMILKTKTAVQEKYCIKNGYKHDAVVVYGDTDSVMVKFGTTDLKEAMDLGTEAAKYVSTLFKHPINLEFEKAYFPYLLINKKRYAGLFWTNPDKFDKLDQKGLASVRRDSCSLVSIVMNKVLKKILIERNVDGALAFVRETINDILHNRVDISKLIISKTLAPNYTNPQPHAVLAERMKRREGVGPNVGDRVDYVIIGGNDKLYNRAEDPLFVLENNIQVDSRYYLTNQLQNPIISIVAPIIGDKQANGMFVVKSIKINTGSQKGGLMSFIKKVEACKSCKGPLRKGEGPLCSNCLARSGELYIKALYDVRDLEEKYSRLWTQCQRCAGNLHSEVLCSNKNCDIFYMRVKVKKELQEKVEQLSKW
# chain 2: MDALLTKFNEDRSLQDENLSQPRTRVRIVDDNLYNKSNPFQLCYKKRDYGSQYYHIYQYRLKTFRERVLKECDKRWDAGFTLNGQLVLKKDKVLDIQGNQPCWCVGSIYCEMKYKPNVLDEVINDTYGAPDLTKSYTDKEGGSDEIMLEDESGRVLLVGDFIRSTPFITGVVVGILGMEAEAGTFQVLDICYPTPLPQNPFPAPIATCPTRGKIALVSGLNLNNTSPDRLLRLEILREFLMGRINNKIDDISLIGRLLICGNSVDFDIKSVNKDELMISLTEFSKFLHNILPSISVDIMPGTNDPSDKSLPQQPFHKSLFDKSLESYFNGSNKEILNLVTNPYEFSYNGVDVLAVSGKNINDICKYVIPSNDNGESENKVEEGESNDFKDDIEHRLDLMECTMKWQNIAPTAPDTLWCYPYTDKDPFVLDKWPHVYIVANQPYFGTRVVEIGGKNIKIISVPEFSSTGMIILLDLETLEAETVKIDI
# chain 3: MDQKASYFINEKLFTEVKPVLFTDLIHHLKIGPSMAKKLMFDYYKQTTNAKYNCVVICCYKDQTIKIIHDLSNIPQQDSIIDCFIYAFNPMDSFIPYYDIIDQKDCLTIKNSYELKVSESSKIIERTKTLEEKSKPLVRPTARSKTTPEETTGRKSKSKDMGLRSTALLAKMKKDRDDKETSRQNELRKRKEENLQKINKQNPEREAQMKELNNLFVEDDLDTEEVNGGSKPNSPKETDSNDKDKNNDDLEDLLETTAEDSLMDVPKIQQTKPSETEHSKEPKSEEEPSSFIDEDGYIVTKRPATSTPPRKPSPVVKRALSSSKKQETPSSNKRLKKQGTLESFFKRKAK
# Experiments:
# Conditions in all cases: both partners purified
# [1] = target: T1, Chromatin Assembly Factor-1 (CAF-1), wild type (yeast, UniProt Q12495 1-606; Q04199 1-468; P13712 1-422); experiment: SEC; PCNA (30 μM) loaded on nicked pUC19 (0.3 μM) by RFCΔN (0.5 μM) with 10 mM MgCl2 and 3 mM ATP, then CAF-1 (5 μM), 15 min room temperature; Superose 6 increase 3.2/300 in 50 mM HEPES pH 7.5, 200 mM NaCl, 0.01% IGEPAL, 1 mM TCEP, 10 mM MgCl2; fractions on SDS-PAGE
# T1 construct: Cac1, large subunit of yeast CAF-1; Cac2, subunit of yeast CAF-1; Cac3, subunit of yeast CAF-1; Heterotrimer Cac1-Cac2-Cac3; also called WT CAF-1; copies: + +
# [2] = target: T1, Chromatin Assembly Factor-1 (CAF-1), …; experiment: cross-linking; limiting PCNA: 50 nM AF546-PCNA K164C loaded on nicked pUC19 (15 nM) by full-length RFC (15 nM), CAF-1 titrated 0-1 μM, 100-110 mM NaCl; 0.2% glutaraldehyde; nuclease digestion; SDS-PAGE, PCNA fluorescence, band intensities; affinities estimated
# [3] = target: T2, Clamp loader RFC (RFC1-5), full-length (yeast, UniProt P38630 1-861; P40348 1-353; P38629 1-340; P40339 1-323; P38251 1-354); experiment: as above
# T2 construct: Rfc1, yeast replication factor C subunit 1; Rfc2, yeast replication factor C subunit 2; Rfc3, yeast replication factor C subunit 3; Rfc4, yeast replication factor C subunit 4; Rfc5, yeast replication factor C subunit 5; also called full-length RFC; copies: + + + +
# [4] = target: Histones H3–H4 (H3 C110A-H4 E63C), Alexa488-labeled (Xenopus laevis, maleimide AlexaFluor-488 on E63C); experiment: fluorescence polarisation; 10 nM Alexa488-labeled H3–H4 with increasing CAF-1, Polϵ, Polδ or RPA; 25 mM TRIS pH 7.5, 300 mM NaCl, 5% glycerol, 1 mM EDTA, 0.01% IGEPAL, 0.01% CHAPS, 1 mM DTT; one site binding curve
binder,measurement,setting,value
B1,binding result,[1],binds
B2,Kd,[2],~100 nM
same,binding result,[3],binds
B3,Kd,[4],≥ 300 nM
